Data reported in PMC11316045.

Experiments:
[1] = FACS of cell surface PD-L1, H460; conditions: glycan lost; control: wild type
[2] = anti-Flag immunofluorescence, also with HSP90B1/DAPI co-staining; conditions: glycan lost; control: wild type
[3] = anti-Flag immunofluorescence, H460 and PD-L1 KO cells; conditions: glycan lost; control: untreated

## PD-L1: N219Q
[1]
  localisation_or_trafficking: decreases
[2]
  localisation_or_trafficking: changes

## PD-L1: N192Q
[1]
  localisation_or_trafficking: no change
[2]
  localisation_or_trafficking: no change

## PD-L1: tunicamycin (5μg/ml)
[3]
  localisation_or_trafficking: changes

## PD-L1: N35Q
[1]
  localisation_or_trafficking: no change
[2]
  localisation_or_trafficking: no change

## PD-L1: N200Q
[1]
  localisation_or_trafficking: no change
[2]
  localisation_or_trafficking: no change
